Assay results from US20100272712.
Positions count from the first letter of the chain named. Names and notes keep the numbering of the source.

B1: Flag-tagged MKP7-ΔC (A.A.1-317, retaining the catalytic domain) (enzyme, UniProt Q9BY84 1-317, looked up, species assumed)
chain: MAHEMIGTQIVTERLVALLESGTEKVLLIDSRPFVEYNTSHILEAININCSKLMKRRLQQDKVLITELIQHSAKHKVDIDCSQKVVVYDQSSQDVASLSSDCFLTVLLGKLEKSFNSVHLLAGGFAEFSRCFPGLCEGKSTLVPTCISQPCLPVANIGPTRILPNLYLGCQRDVLNKELMQQNGIGYVLNASNTCPKPDFIPESHFLRVPVNDSFCEKILPWLDKSVDFIEKAKASNGCVLVHCLAGISRSATIAIAYIMKRMDMSLDEAYRFVKEKRPTISPNFNFLGQLLDYEKKIKNQTGASGPKSKLKLLHLE
modifications: Flag tag
B2: Flag-tagged MKP7-ΔC (C244S) (enzyme, UniProt Q9BY84 1-317 with C244S, looked up, species assumed)
chain: B1 chain with C244S
modifications: Flag tag
B3: Myc-MKP7 (enzyme, UniProt Q9BY84 1-665, looked up, species assumed)
chain: MAHEMIGTQIVTERLVALLESGTEKVLLIDSRPFVEYNTSHILEAININCSKLMKRRLQQDKVLITELIQHSAKHKVDIDCSQKVVVYDQSSQDVASLSSDCFLTVLLGKLEKSFNSVHLLAGGFAEFSRCFPGLCEGKSTLVPTCISQPCLPVANIGPTRILPNLYLGCQRDVLNKELMQQNGIGYVLNASNTCPKPDFIPESHFLRVPVNDSFCEKILPWLDKSVDFIEKAKASNGCVLVHCLAGISRSATIAIAYIMKRMDMSLDEAYRFVKEKRPTISPNFNFLGQLLDYEKKIKNQTGASGPKSKLKLLHLEKPNEPVPAVSEGGQKSETPLSPPCADSATSEAAGQRPVHPASVPSVPSVQPSLLEDSPLVQALSGLHLSADRLEDSNKLKRSFSLDIKSVSYSASMAASLHGFSSSEDALEYYKPSTTLDGTNKLCQFSPVQELSEQTPETSPDKEEASIPKKLQTARPSDSQSKRLHSVRTSSSGTAQRSLLSPLHRSGSVEDNYHTSFLFGLSTSQQHLTKSAGLGLKGWHSDILAPQTSTPSLTSSWYFATESSHFYSASAIYGGSASYSAYSCSQLPTCGDQVYSVRRRQKPSDRADSRRSWHEESPFEKQFKRRSCQMEFGESIMSENRSREELGKVGSQSSFSGSMEIIEVS
modifications: full-length Myc tag
B4: Flag-tagged MKP7-WT (enzyme, UniProt Q9BY84 1-665, looked up, species assumed)
chain: B3 chain
modifications: full-length Flag tag

Test system: active JNK3 purified protein (Upstate)

| Protein | in vitro phosphatase assay (JNK3 phosphorylation by western blot) | in vitro phosphatase activity analysis (JNK3 phosphorylation by western blot) | in vitro phosphatase activity analysis after GSNO treatment of MKP7 |
| --- | --- | --- | --- |
| B1 | Both MKP7-WT and MKP7-ΔC possessed strong phosphatase activities as detected by the decreased phosphorylation of JNK3 | – | – |
| B2 | the phosphatase activity of MKP7-ΔC (C^244S) was much lower than that of MKP7-WT or MKP7-ΔC protein, and the activity after GSNO treatment was essentially unchanged | – | – |
| B3 | – | The ectopically-expressed MKP7 protein exhibited strong phosphatase activity as demonstrated by the decrease in JNK3 phosphorylation | nitrosylation of MKP7 by GSNO markedly inhibited MKP7 phosphatase activity |
| B4 | Both MKP7-WT and MKP7-ΔC possessed strong phosphatase activities as detected by the decreased phosphorylation of JNK3 | – | – |
